This test concerns the target Francisella tularensis polyphosphate kinase 2 (FtPPK2) (Francisella tularensis subspecies tularensis SCHU S4). The test can be described thus: crystal structure.

One may read the stoichiometry N as a count of units in the complex or per binding partner. As for “Francisella tularensis polyphosphate kinase 2 (FtPPK2) (enzyme)”, the stoichiometry N turned out to be 4.

(Values after paper PMC4748334.)
